Experimental data as given in paper PMC7641730, “Structural basis of DNA replication origin recognition by human Orc6 protein binding with DNA”.

T1: HsOrc6-M (Homo sapiens, UniProt Q9Y5N6 95-187)
T1 sequence: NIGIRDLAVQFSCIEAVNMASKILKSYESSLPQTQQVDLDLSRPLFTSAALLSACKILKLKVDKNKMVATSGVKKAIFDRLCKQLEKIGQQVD

T2: HsOrc6-DBD (Homo sapiens, UniProt Q9Y5N6 95-207)
T2 sequence: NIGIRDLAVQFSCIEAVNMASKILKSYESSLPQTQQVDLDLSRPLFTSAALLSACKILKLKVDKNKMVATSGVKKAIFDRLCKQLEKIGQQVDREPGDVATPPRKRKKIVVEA

T3: HsOrc6 full length (Homo sapiens, UniProt Q9Y5N6 1-252)
T3 sequence: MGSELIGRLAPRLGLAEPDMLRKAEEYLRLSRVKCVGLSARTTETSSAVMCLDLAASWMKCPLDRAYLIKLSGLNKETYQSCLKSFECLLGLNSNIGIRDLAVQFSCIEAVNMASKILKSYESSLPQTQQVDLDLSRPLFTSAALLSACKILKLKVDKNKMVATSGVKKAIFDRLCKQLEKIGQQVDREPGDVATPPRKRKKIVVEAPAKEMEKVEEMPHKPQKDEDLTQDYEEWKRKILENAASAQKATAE

B1: 10-bp AT-rich DNA (dsDNA)
DNA 1: TTTAAAAAGT
DNA 2: ACTTTTTAAA
B2: 17-bp AT-rich DNA (dsDNA)
DNA 1: GGCCCTTTTTTTTCTAG
DNA 2: CTAGAAAAAAAAGGGCC

Columns and labels:
[1] = molecular target: T1, HsOrc6-M; assay: NMR (2D NOESY of DNA); smaller shifts than with DBD; NMR: 50 mM sodium phosphate pH 6.5, 100 mM NaCl, 2 mM DTT, 298 K; ITC: 50 mM sodium phosphate pH 6.5, 100 mM NaCl, 25 C; EMSA: 25 mM Tris pH 8.0, 60 mM KCl, 5 mM MgCl2, 0.4 mM EDTA, 0.4 mM EGTA, 0.1% NP-40, 10% glycerol, 0.12 mg/ml BSA, room temperature 30 min; conditions: protein: recombinant; tags: none (N-terminal His-tag cleaved); blunt
[2] = molecular target: T2, HsOrc6-DBD; assay: NMR titration (1H,15N-HSQC); range over residues: K169 47.1±1.4, A170 57.7±1.1, R200 9.92±2.91, I203 11.3±1.5; NMR: 50 mM sodium phosphate pH 6.5, 100 mM NaCl, 2 mM DTT, 298 K; ITC: 50 mM sodium phosphate pH 6.5, 100 mM NaCl, 25 C; EMSA: 25 mM Tris pH 8.0, 60 mM KCl, 5 mM MgCl2, 0.4 mM EDTA, 0.4 mM EGTA, 0.1% NP-40, 10% glycerol, 0.12 mg/ml BSA, room temperature 30 min; conditions: protein: recombinant; tags: none (N-terminal His-tag cleaved); blunt
[3] = molecular target: T3, HsOrc6 full length; assay: NMR titration (1H,15N-HSQC); range over residues; NMR: 50 mM sodium phosphate pH 6.5, 100 mM NaCl, 2 mM DTT, 298 K; ITC: 50 mM sodium phosphate pH 6.5, 100 mM NaCl, 25 C; EMSA: 25 mM Tris pH 8.0, 60 mM KCl, 5 mM MgCl2, 0.4 mM EDTA, 0.4 mM EGTA, 0.1% NP-40, 10% glycerol, 0.12 mg/ml BSA, room temperature 30 min; conditions: protein: recombinant; tags: none (N-terminal His-tag cleaved with 3C); blunt

Binder	binding result [1]	Kd [2]	Kd [3]
B1	binds	–	–
B2	–	23.9 µM	44.5 µM
